Test results: article PMC12212138

Columns and labels:
[1] = molecular target: T1, PARP4 BRCT-WGR-CAT WT (human) (UniProt Q9UKK3); test: EMSA; conditions: FP: 50 mM Tris pH 7.5, 50 mM NaCl, 1 mM MgCl2, 0.05% NP40, 2 mM DTT, 5% glycerol, 25 ug/ml BSA, room temp 30 min; EMSA: 50 mM Tris pH 7.5, 50 mM NaCl, 4% …
T1 sequence: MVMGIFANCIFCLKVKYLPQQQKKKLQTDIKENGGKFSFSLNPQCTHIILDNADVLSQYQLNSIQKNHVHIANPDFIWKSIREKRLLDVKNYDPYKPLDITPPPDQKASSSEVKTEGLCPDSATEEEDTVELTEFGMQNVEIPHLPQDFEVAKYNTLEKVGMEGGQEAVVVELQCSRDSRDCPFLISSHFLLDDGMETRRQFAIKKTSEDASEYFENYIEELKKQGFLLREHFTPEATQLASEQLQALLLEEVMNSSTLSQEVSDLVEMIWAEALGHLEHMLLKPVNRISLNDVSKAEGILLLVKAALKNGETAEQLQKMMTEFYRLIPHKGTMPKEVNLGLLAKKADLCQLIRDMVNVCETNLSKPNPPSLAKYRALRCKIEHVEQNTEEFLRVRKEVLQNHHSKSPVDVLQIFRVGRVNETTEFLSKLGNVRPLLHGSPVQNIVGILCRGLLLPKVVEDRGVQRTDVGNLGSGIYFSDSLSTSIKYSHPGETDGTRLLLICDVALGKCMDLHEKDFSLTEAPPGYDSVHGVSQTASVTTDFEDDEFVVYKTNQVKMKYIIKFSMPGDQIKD

PARP4 WGR-CAT (human) = molecular target: T2, PARP4 WGR-CAT (human) (UniProt Q9UKK3); test: FP; conditions: FP: 50 mM Tris pH 7.5, 50 mM NaCl, 1 mM MgCl2, 0.05% NP40, 2 mM DTT, 5% glycerol, 25 ug/ml BSA, room temp 30 min; EMSA: 50 mM Tris pH 7.5, 50 mM NaCl, 4% …
T2 sequence: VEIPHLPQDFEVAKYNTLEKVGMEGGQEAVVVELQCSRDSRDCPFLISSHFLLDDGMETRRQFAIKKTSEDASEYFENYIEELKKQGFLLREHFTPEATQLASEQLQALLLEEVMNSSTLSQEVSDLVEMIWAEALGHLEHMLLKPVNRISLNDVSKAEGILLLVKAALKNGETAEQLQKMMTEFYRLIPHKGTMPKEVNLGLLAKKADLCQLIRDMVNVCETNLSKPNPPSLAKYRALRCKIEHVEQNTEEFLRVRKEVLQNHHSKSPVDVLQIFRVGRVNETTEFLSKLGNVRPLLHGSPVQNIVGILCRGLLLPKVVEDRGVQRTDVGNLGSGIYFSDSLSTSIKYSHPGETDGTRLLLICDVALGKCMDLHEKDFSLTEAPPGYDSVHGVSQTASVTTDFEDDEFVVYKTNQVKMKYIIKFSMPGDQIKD

Sequence	Kd [1]	Kd (PARP4 WGR-CAT (human))
CCGCGGGC / GCUCAGCGG [Probe 3]	11 µM	–
CCGCGGGC / GCUCGCGG [Probe 4]	7 µM	–
GGCUGGCUUUAGCUCAGCGGUUACUUCGCGUGUCAUCAAACCACCUCUCUGGGUUGUUCGAGACCCGCGGGCGCUCUCCAGCCCUCUU [vtRNA1-3]	–	93 µM
